Measured values published in the supplement of paper PMC9170038.

How the values were obtained:
[1] = tested on: MS2 coat protein; experiment: apparent KD of MS2 coat protein; higher = weaker reporter binding; conditions: Eterna round: R101
Experimental: (§1)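 RNA-MaP: designed FMN/MS2 RNA switches (84 nt design region) are transcribed on-chip within common flanks and titrated with SNAP-549-labelled MS2 coat protein (about 1-3000 nM) in 100 mM Tris pH 7.5, 80 mM KCl, 4 mM MgCl2, without or with 200 uM FMN. Median apparent KD per design; activation ratio = KD,OFF / KD,ON.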

[2] = tested on: MS2 coat protein; experiment: apparent KD of MS2 coat protein; designed switch direction (-1 OFF switch, 1 ON switch): 1; higher = weaker reporter binding; conditions: Eterna round: R98
Experimental: as §1

Sequence	apparent KD of MS2 coat protein ([1]; input ligand: FMN 200 uM) [nM]	apparent KD of MS2 coat protein ([1]; input ligand: none) [nM]	apparent KD of MS2 coat protein ([2]; input ligand: FMN 200 uM) [nM]	apparent KD of MS2 coat protein ([2]; input ligand: none) [nM]
AAAAAUUCUUAAGGAUAUGACUCCGAAACGGAGUCAGAAGGUGAGGAUCACCCACCUAGCUCAGCGUCGAAAGACGCUGAGCAA [#SharedSequence ExNG1 - 28] (puzzle (switch architecture): Exclusion NG 1)	12	10.9	–	–
AAAUAAACUCAAGGAUAUCAGUGGCAAAGCCACUGAGAAGGUGAGGAUCACCCACCUAAGAUCACAGGUGACGAAAGUCACCUG [#SharedSequence ExNG1 - 37] (puzzle (switch architecture): Exclusion NG 1)	17.6	11.2	–	–
AAAUAAAUUGAAGGAUAUGACCCUCGAGGUGACUAAAAGUCACCUCGAGGGUCAGAAGGUCGAGGAUCACCCGAUCUAAAUAAA [#SharedSequence SLExNG1: 1-1] (puzzle (switch architecture): Small Loop Exclusion NG 1)	13.1	8.27	–	–
AAAUAACUUGAAGGAUAUGACCCUCGAGGUGACUAAAAGUCACCUCGAGGGUCAGAAGGUCGAGGAUCACCCGACCAAGUGAAA [#SharedSequence SLExNG1: 9] (puzzle (switch architecture): Small Loop Exclusion NG 1)	13.3	9.17	–	–
AAAUGAUAUCAGAAGGGCUCCAGCAAAGCUGGAGCAGGAUAUGAGGAUCACCCAUAUCACCUGACGGUCGAAACGACCGUCAGG [#SharedSequence - IExNG1: 7-1] (puzzle (switch architecture): Inverted Exclusion NG 1)	62.1	15.5	–	–
AAGUGAAAUCAGAAGGGCUCCAGCAAAGCUGGAGCAGGAUAUGAGGAUCACCCAUAUCACCUGACGGUCGAAACGACCGUCAGG [#SharedSequence - IExNG1: 5-1] (puzzle (switch architecture): Inverted Exclusion NG 1)	147	21.2	–	–
AAGUUUUUACAAGGAUAUCAGUUGUUUAUAAAUUAAACAUGAGGAUCACCCAUGUAACAAAGGAGUGAGAAGGUGUGUUGGAAA [JR_SSNG2_Sub089]	–	–	319	408
AAUAAAACUCAAGGAUAUCAGUGGCAAAGCCACUGAGAAGGUGAGGAUCACCCACCUACGUGACGCUGGAAACAGCGUCACGAA [#SharedSequence ExNG1 - 33] (puzzle (switch architecture): Exclusion NG 1)	36.3	15.8	–	–
AAUAAACAAUAAAAGAGUCCACGAAACUUCUGAGGAUCACCCAGAAGGGCUGAGGUAAUACCUCAGCAGGAUAUGGACGUGGAC [#SharedSequence IExNG# - 1] (puzzle (switch architecture): Inverted Exclusion NG 3)	5.09	5	–	–
ACAUAAUGGUGAGGAUAUGCACAGGAUCACCGUGUAGAAGGCAUCAGGUAGAAGGUGCAGAGGAUCACCCUGUAAGGAUAUAUC [pwkr2 ssNG1 DX.19]	–	–	94.6	562
AGAAACUACGAGAAGGACAUGUGGUCCUUCAAAAAAAUGAGGAUCACCCAUGUAGGAUAUCGUAGUUUCAGGAUCGUGAGAUCA [salish99_ISLExNG1_x101 #HINGE] (puzzle (switch architecture): Inverted Small Loop Exclusion NG 1)	9.58	30	–	–
CACGUCCUCACAGGAUAUGCUGGACUUUGUCCAGCAGAAGGGUGAACAUGAGGAUCACCCAUGUAAAGGACGUGUAUAUUUAAU [Denovo 23]	–	–	72.5	587
CAUGUCCUCACAGGAUAUGCUGGACUUUGUCCAGCAGAAGGGUGAACAUGAGGAUCACCCAUGUAAUGGACAUGUAUAUUUAAG [Mat - Same State NG 1 - Eli mod - D98]	–	–	49.4	902
CCUGACACUUGAGGAUAUGCUCAGGAAUACUGAGCAGAAGGCAGGAAAACCUGAGGAUCACCCAGGUAAGUCAGGAAUAAUAAA [Same State NG1 - A3C, U17G Submission 3A]	–	–	17.2	20.7
CGCUAUGAUGGUUGUAAUAGAGCAUAGGAUAUGCUUGUACAUGAGGAUCACCCAUGUUAUAUUUUGCAGAAGGGUGCAUUUGCG [JR #DistanceFar #Hairpin #NP SLSSNG3 Sub073] (puzzle (switch architecture): Small Loop Same State NG 3)	30.1	59.9	–	–
CUAUUAUAUGUAGGAUAUGCAUAUUAUUAUUGUGCAGAAGGACAUGAGGAUCACCCAUGUAUAUUAUUAUUAUAUAUUAUAUAU (puzzle (switch architecture): Exclusion NG 1)	11.8	16.5	–	–
CUGCAAUUCUUAGGAUAUGCUCAGGAAUACUGAGCAGAAGGAAGAUAUACCUGAGGAUCACCCAGGUUAAACUGGAGCAGAAUA [Same State NG1 - A3C, U17G Submission 8A]	–	–	32.2	181

Sequence	apparent KD of MS2 coat protein ([1]; input ligand: FMN 200 uM) [nM]	apparent KD of MS2 coat protein ([1]; input ligand: none) [nM]	apparent KD of MS2 coat protein ([2]; input ligand: FMN 200 uM) [nM]	apparent KD of MS2 coat protein ([2]; input ligand: none) [nM]
GAGCUGCUCUGAGGAUAUGGGUUUAUAAGGACGGGCACGCCCGACAUGAGGAUCACCCAUGUCUACCAGAAGGCAGAAAAGUUC [Mamain]	–	–	394	171
GCAGAAGGUGCGGAGGAUCACCCUGUAAGGAUAUGCAUUAGCAAGGAUAUACAGAGGAUCACCCUGUAGAAGGUGCACUACUCU [pwkr2 ssNG3 DX.1]	–	–	1140	1430
GCAGAAGGUGCGGAGGAUCACCCUGUAAGGAUAUGCAUUAGCAAGGAUAUACAGAGGAUCACCCUGUAGAAGGUGCACUUCUGC [pwkr2 ssNG3 DX.9]	–	–	1310	897
GCGUCCCGCAGAGGAUAUGUUGUUCGGCCUACAUGAGGAUCACCCAUGUCAAAGGGCUGAUCCCAACAGAAGGCUGAAGGAUAC [Qumarera]	–	–	8.73	64
GCUCUCACUUGAGGAUAUCGAGUGGAUAACACUCGAGAAGGCAGGGAAACCUGAGGAUCACCCAGGUAACUGGAAAGAGAGCAA [Same State NG1 - A3C, U17G Submission 5D]	–	–	20.4	31.8
GCUUGCGACGCAGGAUAUGGGUGCCUGCACACGAGGAUCACCCGUGUAGAGGAACGGAUUACGUCUCAGAAGGGCGUGGCAGGC [United States 4 - Jieux - Same State NG 2]	–	–	21.8	88.9
GGAGACCUCACAGGAUAUGCUGGACUUUGUCCAGCAGAAGGGUGACUAACAUGAGGAUCACCCAUGUAGGUCUCCAAAUUUAAU [Denovo 58]	–	–	631	40.8
GGAGACCUUACAGGAUAUGCUGGACUUUGUCCAGCAGAAGGGUGAAUACAUGAGGAUCACCCAUGUAUGGUCUCCAAAUUUAAU [jl-ssng1-3.05 #GC_VS_GU_SWITCHING] (puzzle (switch architecture): Same State NG 1)	121	52.2	–	–
GGAGAUACAUGAGGAUCACCCAUGUAGGAUAUCGGGCCCAUACCCGGCGAAAGCCGGGUAUGGGCCGAGAAGGGCGUACACACC [#LOL-5] (puzzle (switch architecture): Small Loop Exclusion NG 3)	7.47	8.26	–	–
GGAGCACACAUUAACAUGAGGAUCACCCAUGUCAAAAGACAUGAGGAUAUGGAUCCGAAAAGGAUCCAGAAGGCAUGGUGCUCC [EliMod 8 - Jieux - Same State NG 3]	–	–	35.1	598
GGAGGAGGAUAAGGAUAUAACAUGAGGAUCACCCAUGUGGAGGAGGAGGAGGAGGAGGAGGAGGGUUAGAAGGUAUGGAGGAGG [First attempt] (puzzle (switch architecture): Exclusion NG 2)	11	16.2	–	–
GGGUACAUCGGAGGAUAUCAUGUAAAUACAUGAGGAUCACCCAUGUCGAUGGAGACAUAGGAGAUUGAGAAGGCCGAUGUACCG (puzzle (switch architecture): Same State NG 2)	144	74	–	–
UGCUAACUGUAGAAGGGUGACAUGAGGAUCACCCAUGUGCACGCGCGCUUUACGGCGCGCGUGCCACAGGAUAUACAGUUGAGU [Erora] (puzzle (switch architecture): Inverted Same State NG 2)	55.1	43.1	–	–
UGGUACAUGGGAGGAUAUGGGUUGAUAACAUGAGGAUCACCCAUGUUAAAUAAGCCGAGAGGCUACUAGAAGGCCCAUGUACCU [#InverseDoubleMagnetSystem - JL SNG1 3.00 18] (puzzle (switch architecture): Same State NG 2)	10.6	293	–	–
UUAUGAGCGAUAGGAUAUACUGAGAUUGAAUGGGUAGAAGGAUCAAUCGUGUGGAAGACAUGAGGAUCACCCAUGUUACGGGCC [SameState #75 NG1]	–	–	510	221
UUGGUUCUCGUAGGAUAUGUAGGAUAUGCCUACAUGAGGAUCACCCAUGUUCGCAUGGCAGAAGGACAGAAGGACGAUCACCAU [pwkr ssNG2 2FMN +1F5.17]	–	–	20.8	288
UUGGUUGUCGUAGGAUAUGUAGGAUAUUCCUACAUGAGGAUCACCCAUGUUCGCAUGGAAGAAGGACAGAAGGACGAUGACCAU [salish99_SSNG2_001 #endbits investigation] (puzzle (switch architecture): Same State NG 2)	9.52	1280	–	–
